The nanobody polyreactivity screen of Harvey et al. (2022)

Test: yeast display, Sf9 membrane polyspecificity reagent, FACS + sequencing; frameworks hold sequencing errors
In short: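 Sorting gates, low and high (top ~1%), were placed on anti-HA fluorescence to track expression and on streptavidin fluorescence to track reagent binding. A clone's polyreactivity label is taken from the gate it came out of. The reagent was 10% biotinylated, detergent-solubilized Sf9 membrane, applied for 1 hour at 4 °C to galactose-induced yeast display cells.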

Sequence | polyreactivity (PSR sort gate)
QVQLVESGGGLVQAGGSLRLSCAASGSTLYRYTMGWYRQAPGKERELVAAISSGGNTYYADSVKGRFTISRDNAKNTVYLQMNSLKPEDTAVYYCAAEDSVYIPYYDAFDYWGQGTQVTVSS | low polyreactivity
QVQLVESGGGLVQAGGSLRLSCAASGITFRHYAMGWYRQAPGKEREMVARIRGGGVSTYYADSVKGRFTISRDNAKNTVYLQMNSLKPEDTAVYYCNAVFESWWGDYDYWGQGTQVTVSS | high polyreactivity
QVQLVESGGGLVQAGGSLRLSCAASGIFWYNMGWYRPAPGKERELVAAITASGGSRTYYADSVKGRFTISRDNAKNTVYLQMNSLKPEDTAVYYCAASSYSYLYYSWGQGTQVTVSS | high polyreactivity
QVQLVESGGGLVQAGGSLRLSCAASGRTFVIYARGWYRQAPGKEWALVAAINWRGGSTYYADSVKGRFTISRDNAKNTVYLQMNSLKPEDTAVYYCAADTGWWWLYDYWGQGTQVTVSS | high polyreactivity
QVQLVESGGGLVQAGGSLRLSCAASGSTFRYYAMGWYRQAPGKERELVAAITSSGGRTYYADSVKGRFTISRDNAKNTVYLQMNSLKPEDTAVYYCAAYAYYHTGDDYWGQGTQVTVSS | high polyreactivity
QVQLVDSGGVLFQAGVSLLISCYASGITFYSYALGRNRRAPGKDWELVASITKSSGRTYYADSVKGRFTISRDNAKTTVSLQMNSVKPEDTAVYYCKAYYVALPPNMDYWGQGTQVTVSS | high polyreactivity
QVQLVESGGGLVQAGGSLRLSCAASGSTFYGNAMGWYRQAPGKERELVATIDSTAGTNYADSVKGRFTISRDNAKNTVYLQMNSLKPEDTAVYYCAREYSIYNPPGYLGTVEYDYWGQGTQVTVSS | low polyreactivity
QVHLVESGGGLVQAGGSLRLSCAASGITFAWYAMGRYRQAPGKERELVAAITRGGGSTYYADSVKGRFTISRDNAKNTGYLQMNSLKPEDTAVYYCAARPYSYPYGYWGQGTQVTVSS | low polyreactivity
QVQLVESGGGLVQAGASLRLSCAASGFTLADNTMGWYRQAPGKERELVAAITSGASTYYADSVKGRFTISRDNAKNTVYLQMKSLKPEDTAVYYCAALYYWRSGYDYWGQGTQVTVSS | low polyreactivity
QVQLVESGGGLVQAGGSLRLSCAASGSIFTTYAMGWYREAPGKERELVAAITDTSSTNYADSVKGRFTISRDNAKKTVFLQMNSLKPEDTAVYYCAVDLGYEYDWGQGTQVTVSS | low polyreactivity
QVQLVESGGGLVQAGGSLRLSCAASGYTFSYNAMGWYRQAPGKERELVARITRGTSTYADSVKGRFTISRDNAKNTVYLQMNSLKPEDTAVYYCAARPGSGRSYTSDYWGQGSQVTVSS | high polyreactivity
QVQLQESGGGLVQAGGSLRQSCAASGNIFLGDTMGWYRPAPGKEREFVAGIARGGNPYYADSVKGRFTISRNNAKNTVYLQKNSLKPEDTAVHYCAVQRSHASDYNYWGQGTQVTVSS | low polyreactivity
QVQLVESGGGLVQAGGSLRLSCAASGSIFDLNAMGWYRQAPGKERELVAAISKSGGSTYYADSVKGRFTISRDNAKNTVYLQMNSLKPEDTAVYYCAARYHEPGYSYKFWGQGTQVTVSS | low polyreactivity
QVLLVESGGGLVQAGGSLRLSCAASGSIFGAYAMGWYRQAPGKVRELVAAINYGGATTYYADSVKGRYTISRDLAKNTVYLQMNSLKPQDTAVYYCAADNDTDHSSATYGYDYWGQGTQVTVSS | low polyreactivity
QVQLVESGGGLVQAGGSLRLSCAASGSIFAYNAMGWYRQAPGKERELVAGISSRGVSTYADSVKGRFTISRDNAKNTVYLQMNSLKPEDTAVYYCARGGYWGKRGRYDYWGQGTQVTVSS | low polyreactivity
QVQLVESGGGLVQAGGSLRLSCAASGSTFSPYALGWYRQATGKERELVAAISASGVGTYYADSVKGRFTISRDYAKNPVYLQMNRLIPEDTAVYYCCRDYGWDISKGRYGYWGQGTQVTVSS | low polyreactivity

Sequence | polyreactivity (PSR sort gate)
QVQLVESGGGLVQAGGSLRLSSAASGFTLDWYVIGWYRKAPWKERELVAAISSSGGRTYYADSVKGRFTISRDNAKNTVYLQMNSLKPEDTAVYYCAARNIYGGYPYGYDYWGQGTQVTVSS | high polyreactivity
QVQLVESGGGLVQAGGSLRLSCAASGRTFEGNAMGWSRQAPGKERELVAAISGSGGRTYYADSVKGRFTISRDNAKNTVYLQMNSLKPEDTAVYYATLYSVYNPWRFNYWGQGTQVTVSS | high polyreactivity
QVQLVESGGGLVQAGGSLRLSCAASGGTFAIYAMGWYRQAPGKYRELVASINSGGSTNNADSVKGRFTISRDNAKNTVYFQLNLLKPEDTAVYYCNRGYLGYFRYDYWGQGTQVTVSS | high polyreactivity
QVQLVESGGGLVQAGGSLRLSCADSGIIFAYYDMGWYRQAPGKERELVASISSTGGSTYYADSVKGRFTISSDNAKNTVYLQMNSLKPEDTAVYYCAVDGLPPKDALHLYYYWGQGTQVTVSS | low polyreactivity
QVQLVESGGGLVQAGGSLRLSCAASGSNFGPNAMGWYRQAPGKERELVAVISFRGGNTYYADSVKGRFTISRDNAKNTVYLQMNSLKPEDTAVYYCAARGYRYGYGYWGQGTQVTVSS | high polyreactivity
QVQLVESGGGLVQAGGSLRLSCAASGSTFYAYTMGWYRQAPGKERELVAAITSSGSNTYYADSVKGRFTISRDNAKNTVYLQMNSLKPEDTAVYYCAARITREGYYWGQGTQVTVSS | high polyreactivity
QVQLVESGGGLVQAGGSLRLSCAASGRIFNYYAMGWYRQAPGKVTEFVASITSRGGTTYYADSVKGRFTISRDNAKNTVYLQMNCLKTEDTAVYFCAAVTRQGSRRSRMNYWGQGTQVTVSS | high polyreactivity
QVQLVESCGGLVQAGGILRLSCADYGSIFYYNAMGWYRQAPGKERQLVAAITRSGSTNYAESVKLRFTISRDNAKNTVYLQMNSLKPEDTAVYYCAAPWRGSVFRYYSWGQGTQVTVSS | low polyreactivity
QVQLVESGGGLVQAGGSLRLSCAASGRISGYAMGWDRQAPGKERELVAAISTRGGTTYYADSVKGRFTISRDNAKNTVQLQMNSLKPEDTAVYYCNAASSRWPEYDYWGQGTQVTVSS | high polyreactivity
QVQLEESGGGLVQAGGSLRLSCAASGFIYRGYTMGWYRTAPGKERELVAGITSTASTNYADSVKGRFTISRDNAKNTVYLQMNSLKPEDTAVYYCAAGVPYRLRNRYYYWGQGTQVTVSS | high polyreactivity
QVQLVESGGGIVQAGGSLRLSCAASGRIFLTNAMGWYRQAPGKERELVADISRGGSTYPDSVKGRFTISRDNAKNTVYLQMNSLKPEDTAVYYCAADEYSPGDSRTRYDYWGQGTQVTVSS | low polyreactivity
QVQLVESGGGLVQAGGSLRLSCAASGSIFRYYAMGWYRQAPGKERELVAVITGTGGSTYYADSVKGRFTISRDNAKNTVYLQMNSLKPEDTAVYYCNVYRPWGWFDYWGQGTQVTVSS | high polyreactivity
QVQLVESGGGLVQAGGSLRLSCAASVSIFWSYAMGWSRLAPGKERELVASISRSTGRTRYADSVKGRFTFSRDNAKNTVDLQMNSLKPEDTAVYYCNAEKRGQSYRFDYWGQGTQVTVSS | high polyreactivity
QVQLVESAGGLVQAGGSLRLSCAASGRTFIGNAMGWYRQAPAKERELVAGISYRGGSTYYADSVKGRFSFSRDNAKNTVYLQMNSLKPEDTAVYYCAAPGRGGYYYWGQGTQVTVSS | high polyreactivity
QGQRVESGGGLVQAGCSLRLSSAASGSTFNEYTLGWYRQAPGKERELVAAIRASDGSTFYADTVKGRFTISRDYAKNSVYFQMNSLKPEDTSVYYCPADYYWNDYWGQGTQVTVSS | low polyreactivity
EVQLVESGAGLVQAVGSLRLSCYASGFIFGYNAMGWYRQAHGKERELVAAISSGGGNTYYADSVKGRFTISRDNAKNTVYLQMNSLKPEDTAVYYCAAPDPRRPRRGDSWGQGTQVTVSS | low polyreactivity
